This passage reports Kd results from paper PMC5607963.

This assay addresses F-actin polymerized from rabbit skeletal muscle G-actin, stabilized with phalloidin (rabbit), P68135. Put plainly: co-sedimentation. Conditions: remark: other sources report otherwise.

For orientation: Kd means the equilibrium constant for the complex coming apart. Higher therefore signals a looser complex.

B1: αE-catenin homodimer, P26231 1-906 (natural protein)
chain: MTAVHAGNINFKWDPKSLEIRTLAVERLLEPLVTQVTTLVNTNSKGPSNKKRGRSKKAHVLAASVEQATENFLEKGDKIAKESQFLKEELVVAVEDVRKQGDLMKSAAGEFADDPCSSVKRGNMVRAARALLSAVTRLLILADMADVYKLLVQLKVVEDGILKLRNAGNEQDLGIQYKALKPEVDKLNIMAAKRQQELKDVGNRDQMAAARGILQKNVPILYTASQACLQHPDVAAYKANRDLIYKQLQQAVTGISNAAQATASDDAAQHQGGSGGELAYALNNFDKQIIVDPLSFSEERFRPSLEERLESIISGAALMADSSCTRDDRRERIVAECNAVRQALQDLLSEYMGNAGRKERSDALNSAIDKMTKKTRDLRRQLRKAVMDHVSDSFLETNVPLLVLIEAAKNGNEKEVKEYAQVFREHANKLIEVANLACSISNNEEGVKLVRMSASQLEALCPQVINAALALAAKPQSKLAQENMDLFKEQWEKQVRVLTDAVDDITSIDDFLAVSENHILEDVNKCVIALQEKDVDGLDRTAGAIRGRAARVIHVVTSEMDNYEPGVYTEKVLEATKLLSNTVMPRFTEQVEAAVEALSSDPAQPMDENEFIDASRLVYDGIRDIRKAVLMIRTPEELDDSDFETEDFDVRSRTSVQTEDDQLIAGQSARAIMAQLPQEQKAKIAEQVASFQEEKSKLDAEVSKWDDSGNDIIVLAKQMCMIMMEMTDFTRGKGPLKNTSDVISAAKKIAEAGSRMDKLGRTIADHCPDSACKQDLLAYLQRIALYCHQLNICSKVKAEVQNLGGELVVSGVDSAMSLIQAAKNLMNAVVQTVKASYVASTKYQKSQGMASLNLPAVSWKMKAPEKKPLVKREKQDETQTKIKRASQKKHVNPVQALSEFKAMDSI
The molecule B1 registered a Kd of 2900 nM.
